Entries after “also recorded” stand apart in the source; their conditions may differ. Ends that are not written are not given here. Peptide text beside a SMILES is read from it. * marks the point of attachment. Cbz = O=C(OCc1ccccc1)*
Experiments:
[1] = molecular target: T1, TWIST1 (Homo sapiens, UniProt Q15672); assay: Cell fractionation and western blot of TWIST1 and GFP in HEK-293 cells; type: cell-based
T1 construct: The cloning of TWIST1 into the pcDNA4-MycHis vector has been described previously [14]; expressed in transfected cells; host or cells: HEK-293
T1 sequence (Q15672 1-202): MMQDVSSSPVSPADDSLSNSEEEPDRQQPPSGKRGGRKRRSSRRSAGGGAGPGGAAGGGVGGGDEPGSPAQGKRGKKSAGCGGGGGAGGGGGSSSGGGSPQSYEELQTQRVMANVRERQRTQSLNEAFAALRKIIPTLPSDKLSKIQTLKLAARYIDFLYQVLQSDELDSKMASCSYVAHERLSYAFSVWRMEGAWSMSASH
Protocol: (§1) HEK-293 cells were grown in McCoy's 5A medium supplemented with 10% fetal bovine serum (FBS) and 1% penicillin/streptomycin (P/S). Ovcar4 cells were grown in RPMI medium with 10% FBS and 1% P/S. All cells were maintained at 37° C. and 90% humidity in a tissue culture incubator with 5% CO2 atmosphere. Cells were passaged every 2-4 days as they became confluent, using 0.25% trypsin. Where indicated, cells were transfected using 5 μL per well Lipofectamine 2000 (Life Technologies, Carlsbad, Calif.) in a total of 2 mL per well of OptiMEM low serum medium (Life Technologies). For proteasome inhibition studies, MG132 was added to cells in normal medium four hours after transfection and left on overnight. 5 μM was used for western studies, and 1 μM was used for luciferase assays.
(§2) In order to create a competitive inhibitor for TWIST1-RELA binding, the WR domain from TWIST1 was fused to GFP. To achieve this, PCR was used to amplify the final 63 nucleotides of the TWIST1 gene (including stop codon) and add 5′ XhoI and 3′ BamHI restriction sites. The PCR fragment and the pEGFP-C3 vector were subjected to XhoI-BamHI double digest (New England BioLabs, Ipswich, Mass.) and the two were ligated together. GFP lacking the WR domain was used as a control, and includes residues at the C-terminus encoded by the multiple cloning site of the vector. As a result, the molecular weights of the two GFP proteins are indistinguishable on a western blot. To achieve equal expression of GFP-WR compared to unmodified GFP, it was necessary to transfect cells with three-fold more GFP-WR plasmid versus GFP. A one to one ratio was sufficient for CoIP illustrated in FIG. 4C. […]
Protein was run on 4% stacking, 10% resolving polyacrylamide gels and transferred to PVDF membrane (GE Healthcare Bio-Sciences, Pittsburgh, Pa.) on a Trans-Blot SD Semi-Dry Transfer Cell (Bio-Rad, Hercules, Calif.). […] Protein was detected using FemtoGlow chemiluminescent substrate (Michigan Diagnostics, Royal Oak, Mich.) and the Pxi4 imager (Syngene, Frederick, Md.). […]

[2] = system: IL-8 promoter; assay: Dual luciferase assay, firefly luciferase under control of the IL-8 promoter, in Ovcar4 cells; type: cell-based
Protocol: as §1, with “assays. […]” for “assays.”
Ovcar4 cells were plated at 50,000-75,000 cells per well, in 500 μL RPMI, in a 24 well plate and allowed to adhere overnight. […] The day after transfection, luciferase expression was quantified using the Dual Luciferase Assay kit (Promega, Madison, Wis.) according to the manufacturer instructions.
Western blots were quantified using GeneTools software. Data were graphed and analyzed in Microsoft Excel and GraphPad Prism 6, respectively. […] Luciferase assays were analyzed using one-way ANOVA with correction for multiple comparisons. […]

[3] = molecular target: T2, TWIST1-RELA binding (Homo sapiens, UniProt Q15672); assay: Co-immunoprecipitation with RELA pulldown in transfected HEK-293 cells; conditions: increasing GFP-WR expression, total GFP held constant with control GFP
T2 construct: The cloning of TWIST1 into the pcDNA4-MycHis vector has been described previously [14]; The wild type RELA gene was also cloned into pcDNA4-MycHis; expressed in transfected cells; host or cells: HEK-293
T2 sequence (Q15672 1-202): T1 sequence (Q15672 1-202)
Text: as §2, with “blot.” for “blot. To achieve equal expression of GFP-WR compared to unmodified GFP, it was necessary to transfect cells with three-fold more GFP-WR plasmid versus GFP. A one to one ratio was sufficient for CoIP illustrated in FIG. 4C.”
(§3) HEK-293 cells were plated at 500,000 cells per well, in 2 mL normal medium, in a 6 well plate and allowed to adhere. […] Cell pellets were lysed in RIPA buffer, and protein concentration was determined by BCA Protein Assay (Thermo Fisher, Waltham, Mass.). […]
(§4) Protein was run on 4% stacking, 10% resolving polyacrylamide gels and transferred to PVDF membrane (GE Healthcare Bio-Sciences, Pittsburgh, Pa.) on a Trans-Blot SD Semi-Dry Transfer Cell (Bio-Rad, Hercules, Calif.). […] Protein was detected using FemtoGlow chemiluminescent substrate (Michigan Diagnostics, Royal Oak, Mich.) and the Pxi4 imager (Syngene, Frederick, Md.). Quantitation was performed using the accompanying GeneTools software.

[4] = molecular target: T3, RELA (Homo sapiens, UniProt Q04206); assay: Co-immunoprecipitation with GFP pulldown in transfected HEK-293 cells; type: binding; conditions: data not shown
T3 construct: The wild type RELA gene was also cloned into pcDNA4-MycHis; expressed in transfected cells; host or cells: HEK-293
Text: as §2, with “blot.” for “blot. To achieve equal expression of GFP-WR compared to unmodified GFP, it was necessary to transfect cells with three-fold more GFP-WR plasmid versus GFP. A one to one ratio was sufficient for CoIP illustrated in FIG. 4C.”
as §3, §4

[5] = molecular target: T1, TWIST1; assay: as above; type: binding; conditions: increasing GFP-WR expression
Text: as §2, with “blot.” for “blot. To achieve equal expression of GFP-WR compared to unmodified GFP, it was necessary to transfect cells with three-fold more GFP-WR plasmid versus GFP. A one to one ratio was sufficient for CoIP illustrated in FIG. 4C.”
as §3, §4

T3 sequence (Q04206 whole entry): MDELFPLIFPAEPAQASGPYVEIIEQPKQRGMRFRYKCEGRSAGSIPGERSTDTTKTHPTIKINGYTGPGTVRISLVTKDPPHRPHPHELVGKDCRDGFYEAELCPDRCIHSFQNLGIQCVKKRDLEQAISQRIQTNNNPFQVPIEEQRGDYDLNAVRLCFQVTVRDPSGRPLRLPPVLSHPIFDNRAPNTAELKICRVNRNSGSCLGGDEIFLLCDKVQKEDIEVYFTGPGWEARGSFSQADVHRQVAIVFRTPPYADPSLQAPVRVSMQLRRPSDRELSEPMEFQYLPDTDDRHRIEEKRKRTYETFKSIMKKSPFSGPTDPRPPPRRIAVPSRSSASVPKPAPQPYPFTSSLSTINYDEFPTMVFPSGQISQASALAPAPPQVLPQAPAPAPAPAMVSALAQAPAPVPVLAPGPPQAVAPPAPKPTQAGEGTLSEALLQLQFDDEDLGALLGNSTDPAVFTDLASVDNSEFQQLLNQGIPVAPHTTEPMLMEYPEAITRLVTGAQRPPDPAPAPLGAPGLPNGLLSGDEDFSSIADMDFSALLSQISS

| Molecule | levels of TWIST1 and GFP in the cytoplasmic fraction after proteasome inhibition ([1]; MG132 5 μM overnight, cells expressing GFP-WR) | IL-8 promoter activity (FFluc expression) after proteasome inhibition ([2]; MG132 1 μM overnight, cells expressing GFP-WR) | TWIST1 co-precipitated with RELA (TWIST1-RELA binding) [3] | proportion of TWIST1 signal found in the cytoplasmic fraction ([1]; increasing GFP-WR transfection, western blot of fractionated cells) | absolute levels of TWIST1 and GFP in cytoplasmic and nuclear fractions ([1]; increasing amount of GFP-WR transfected) | IL-8 promoter driven FFluc expression (normalized to Renilla luciferase) ([2]; increasing dose of GFP-WR, Ovcar4 cells co-transfected with TWIST1 and RELA) | RELA co-precipitated with GFP [4] | TWIST1 co-precipitated with GFP [5] |
| --- | --- | --- | --- | --- | --- | --- | --- | --- |
| CC(C)C[C@@H](C=O)NC(=O)[C@H](CC(C)C)NC(=O)[C@H](CC(C)C)NC(=O)OCc1ccccc1 [MG132, reference compound] (Cbz-Leu-Leu-Leu-aldehyde) | partially rescue | increases; also recorded: partial rescue |  |  |  |  |  |  |
| GFP-WR: fusion protein of GFP and the 20 amino acid WR domain of TWIST1, expressed from pEGFP-C3 as competitive inhibitor of TWIST1-RELA binding (LELSYAFSVWRMEGAWSMSASH; also: fused to GFP) |  |  | reduced in a dose-dependent manner; also recorded: reduced in a dose dependent fashion | slight increase; also recorded: mild increase | decreased | dose dependent drop; also recorded: dose-dependent reduction | only trace amounts | more TWIST1 co-precipitated; also recorded: co-precipitated to a greater degree |
